Consider 4 substances from patent US20190055279A1, “NOVEL POLYPEPTIDES WITH IMPROVED PROTEOLYTIC STABILITY, AND METHODS OF PREPARING AND USING SAME” (TUFTS UNIVERSITY, priority 2015, published 2019).

For assay [1], the target named is GLP-1 receptor.
Assay [2] addresses GLP-1 receptor. This is another data set of the same source.
For assay [3], the target named is GLP-1 receptor. The source holds these as a separate data set.

N-acetyl-GLP-1 (peptide), sequence (peptide): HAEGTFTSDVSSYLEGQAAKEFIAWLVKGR

Consider Exenatide (peptide), for which, in the assay with GLP-1 receptor [1], the EC50 (pM), agonist potency, CRE-luciferase reporter is 1.1 pM.

As for N-acetyl-GLP-1 (peptide), the agonist potency, CRE-luciferase reporter with GLP-1 receptor [2] was found to be 50 fold. With dipeptidyl protease 4 (enzyme), the degradation by DPP4, read as potency loss in the GLP-1R agonist assay is greater than 98% in the assay with Liraglutide and greater than 99.8% with GLP-1 (7-36) amide. The same substance registered a degradation by DPP4, read as potency loss on human GLP-2R in the assay with GLP-2 greater than 97%. For “para-trifluoromethyldiazirine benzyl derivative of GLP-1 (peptide)”, in the assay with GLP-1 receptor [3], the agonist potency and efficacy is 123 fold.
